According to US20260022186A1:

Biological target: T1, human NT5E expressed on MDA-MB-231 cells (human) (UniProt P21589)
T1 sequence (looked up): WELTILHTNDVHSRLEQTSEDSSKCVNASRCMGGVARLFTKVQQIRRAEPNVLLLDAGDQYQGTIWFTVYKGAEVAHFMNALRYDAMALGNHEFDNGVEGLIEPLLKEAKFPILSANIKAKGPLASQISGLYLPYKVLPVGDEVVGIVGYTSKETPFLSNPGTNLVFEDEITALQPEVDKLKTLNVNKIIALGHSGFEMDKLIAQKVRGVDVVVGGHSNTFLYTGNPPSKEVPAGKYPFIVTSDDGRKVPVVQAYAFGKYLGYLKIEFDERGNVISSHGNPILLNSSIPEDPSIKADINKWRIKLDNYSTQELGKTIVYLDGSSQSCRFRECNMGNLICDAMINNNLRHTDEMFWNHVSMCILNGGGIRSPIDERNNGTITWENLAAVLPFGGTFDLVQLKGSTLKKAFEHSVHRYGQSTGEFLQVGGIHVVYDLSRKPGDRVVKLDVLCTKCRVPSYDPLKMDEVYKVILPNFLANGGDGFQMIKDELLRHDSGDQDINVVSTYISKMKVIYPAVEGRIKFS
Test: cell-based or functional assay

**Q.** With BMS986179 IgG (antibody) as the substance, how does the IC50 of inhibition of NT5E on MDA-MB-231 cells, ATP read?
**A.** 1.1 nM

**Q.** What about the IC50 of inhibition of NT5E on MDA-MB-231 cells, no ATP of the same substance?
**A.** 0.6 nM
